Tests used:
N^AM4C [1] = experiment: NMR line-shape simulation, N^AM4C peptide titration (three-state); assay type: binding; settings: three-state model, 310 K
Protocol: (§1) The peptides were dissolved in NMR buffer to generate 10 mM stocks that were titrated in 0.1 molar equivalents steps to 250 μM dArmRPs in NMR buffer up to 1.5 equivalents, and then in 0.5 equivalents steps up to 5.5 equivalents. For each step, a [^15N,^1H]-HSQC experiment was recorded at 310 K with the other parameters described above.
The change of line-shape and peak positions in the [^15N,^1H]-HSQC spectra upon adding (KR)n was simulated using in-house written Mathematica notebooks. In principle, for the simple two-state process of ligand binding, described only by single kon and koff rates and the concentrations used, the modified Bloch McConnell equations[49] can be used. […]
For simplicity, the same transverse relaxation rate R2 was assumed for all protein states and the chemical shift of the partially unbound state PL^* to be the same as for the free protein, that is ΩP . ΩPL is the chemical shift of the bound state and L the equilibrium concentration of the free peptide. […] Thereby the k1,on and k1,off rate constants were chosen such that their ratio was in the range of the measured or predicted Kd values[21] and that all signals during the titration could be fitted well (see text, Supplementary Fig. 12). […]

N^AM4C [2] = experiment: [15N,1H]-HSQC peptide titration, N^AM4C/NM4C; assay type: binding; settings: 310 K, 250 μM dArmRP
Protocol: All experiments were recorded on Bruker Neo 600 or 700 MHz spectrometers, employing cryogenically cooled or Prodigy ^1H, ^13C, ^15N triple-resonance probes. Pulse field gradients with coherence selection[46] were applied to all heteronuclear ^15N,^1H experiments using standard Bruker pulse sequences, together with the Rance-Palmer method for sensitivity enhancement. All spectra were processed in TOPSPIN using cosine-bell-shifted window functions prior to Fourier transformation, and analyzed in CARA[48]. Chemical shift assignments were obtained from triple-resonance and HCCH-type 3D NMR experiments using the standard Bruker pulse-program library. […]
as §1
Assignments of the spectra required for CSPs were performed through segmental labeling as detailed in the Results section. […] CSPs were calculated using the following formula[50]9 δHf−δHb/1^2+δNf−δNb/4^2 where δH and δN represent the chemical shifts in the proton and nitrogen dimensions, respectively, while f and b represent the free and bound states, respectively. […]

mCherry-tagged N^YM7C = experiment: FRET or BRET; FRET-based stopped-flow assay; 20 nM GFP-tagged peptide mixed 1:1 (volume) with 50-250 nM mCherry-tagged NM7C for kon; koff from competition: preincubated 50 nM tagged peptide and 40 nM tagged protein mixed 1:1 with 2 uM unlabeled competitor
[3] = target: N^AM4C designed Armadillo repeat protein (dArmRP) with the redesigned N^A (artificial) cap, four identical internal modules M and the C cap; experiment: NMR titration; [15N,1H]-HSQC chemical shift perturbations; 10 mM peptide stock titrated in 0.1 equivalent steps to 250 uM dArmRP in NMR buffer up to 1.5 equivalents, then 0.5 equivalent steps up to 5.5 equivalents; 310 K
[4] = target: N^AM4C designed Armadillo repeat protein (dArmRP) with the redesigned N^A (artificial) cap, four identical internal modules M and the C cap; experiment: NMR titration; line-shape simulation of traces from [15N,1H]-HSQC titrations; three-state model P + L = PL = PL*; parameters adjusted by visual inspection, k1,on and k1,off chosen so that their ratio fits the measured or predicted Kd
[5] = target: N^YM7C designed Armadillo repeat protein (dArmRP) with the N^Y cap, seven identical internal modules M and the C cap; experiment: NMR titration; [15N,1H]-HSQC chemical shift perturbations; 10 mM peptide stock titrated in 0.1 equivalent steps to 250 uM dArmRP in NMR buffer up to 1.5 equivalents, then 0.5 equivalent steps up to 5.5 equivalents; 310 K
[6] = target: N^AM7C designed Armadillo repeat protein (dArmRP) with the N^A cap, seven identical internal modules M and the C cap; experiment: NMR titration; line-shape simulation of traces from [15N,1H]-HSQC titrations; three-state model P + L = PL = PL*; parameters adjusted by visual inspection, k1,on and k1,off chosen so that their ratio fits the measured or predicted Kd

## (Lys-Arg)4 [(KR)4]
N^AM4C [1]
  k2 (isomerization of bound state, PL to PL*): 30 s^–1
  k2’ (PL* to PL): 700 s^–1
N^AM4C [2]
  peptide required for full saturation: 1.3 equiv.

B1: GFP-tagged (KR)4 peptide (peptide)
chain: KRKRKRKR
mCherry-tagged N^YM7C
  koff: 0.23 s⁻¹

B2: (KR)4 peptide, (Lys-Arg)4 octapeptide (peptide)
peptide: Ac-KRKRKRKR-OH
[3]
  equivalents of peptide required for full saturation: 1.3 equiv.
[4]
  k1,off (step 1, overall unbinding; line-shape simulation parameter): 300 s^–1
  k1,on (step 1, overall binding; line-shape simulation parameter): 1e+09 M⁻¹ s⁻¹
  k2 (step 2, exchange in the bound state, PL to PL*): 30 s^–1
  k2’ (step 2, exchange in the bound state, PL* to PL): 700 s^–1

B3: (KR)7 peptide (peptide)
peptide: Ac-KRKRKRKRKRKRKR-OH
[5]
  equivalents of peptide required for full saturation: 1 equiv.
[3]
  equivalents of peptide required for full saturation: 1 equiv.
[6]
  k1,off (step 1, overall unbinding; line-shape simulation parameter): 0.0003 s^–1
  k1,on (step 1, overall binding; line-shape simulation parameter): 6.2e+08 M^–1·s^–1
  k2 (step 2, exchange in the bound state, PL to PL*): 30 s^–1
  k2’ (step 2, exchange in the bound state, PL* to PL): 100 s^–1

Source: paper PMC10684580, “Unexpected dynamics in femtomolar complexes of binding proteins with peptides” (Nature Communications, 2023)
